Test results: paper PMC6289461, “Mek1 coordinates meiotic progression with DNA break repair by directly phosphorylating and inhibiting the yeast pachytene exit regulator Ndt80”

Molecular target: T1, 6xHis-Ndt80 WT DBD (Saccharomyces cerevisiae, UniProt P38830 1-340)
T1 sequence: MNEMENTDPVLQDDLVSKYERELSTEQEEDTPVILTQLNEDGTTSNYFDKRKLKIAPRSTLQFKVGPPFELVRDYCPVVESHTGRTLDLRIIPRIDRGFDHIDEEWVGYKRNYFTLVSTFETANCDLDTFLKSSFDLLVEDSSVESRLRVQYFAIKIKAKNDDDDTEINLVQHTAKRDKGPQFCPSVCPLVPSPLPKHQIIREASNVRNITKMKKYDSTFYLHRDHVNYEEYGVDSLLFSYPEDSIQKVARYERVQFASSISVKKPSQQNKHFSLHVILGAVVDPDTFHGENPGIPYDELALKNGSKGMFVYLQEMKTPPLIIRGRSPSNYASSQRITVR
Test: EMSA; 50 nM DBD, 50 nM duplex; highest non-specific binding of the three DBDs; EMSA: 10 mM Tris-HCl pH 7.5, 40 mM NaCl, 4 mM MgCl2, 6% glycerol, 10 mg/ml BSA, 10 ug/ml sonicated salmon sperm DNA; 20 ul, room temperature, 30 min; 6% PAGE in 0.5X TBE
Conditions: protein: recombinant; tags: N-terminal 6xHis (pET-28a); label: 5' Cy5 on strand 1; blunt

B1: Cy5-Scr duplex (dsDNA)
DNA 1: ATTGACGCGGCTTCATCTCACGTATCATT
DNA 2: AATGATACGTGAGATGAAGCCGCGTCAAT
binding result: binds
